In assay [1] the target is T1, cynomolgus TIGIT on CHO cells (cynomolgus monkey, UniProt A0A7N9I9V4 89-312).
T1 construct: whole, on cells; also called CHO-cyTIGIT; cyTIGIT
Kind of assay: FACS blocking assay: labelled PVR-Fc (blocked ligand; text: cyPVR, scheme of FIG. 4A prints hPVR.Fc) on CHO cells expressing cyno TIGIT. How it is done: (§1) These studies were further validated in CHO-TIGIT PVR blocking experiments in which TIGIT-expressing CHO cells were incubated with labeled PVR-Fc fusion protein in the presence of anti-TIGIT antibody or an human IgG1 control (FIG. 4A).

Assay [2] concerns the target T2, cynomolgus monkey (cyno) TIGIT protein (cynomolgus monkey, UniProt A0A7N9I9V4 89-209). Kind of assay: SPR, bivalent affinity.
Assay [3] concerns the target T3, human TIGIT protein (human, UniProt Q495A1 22-141, limits assumed).
T3 construct: Recombinant protein (Genentech) used in ELISA screening and as SPR analyte; also called TIGIT antigen
T3 sequence: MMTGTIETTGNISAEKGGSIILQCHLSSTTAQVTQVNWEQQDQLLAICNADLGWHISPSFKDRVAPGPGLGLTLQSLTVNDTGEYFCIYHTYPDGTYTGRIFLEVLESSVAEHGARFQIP
Put plainly: SPR, bivalent affinity.

Another assay addresses T4, hTIGIT mutant Q53A (human, UniProt Q495A1).
T4 sequence (TIGIT, looked up): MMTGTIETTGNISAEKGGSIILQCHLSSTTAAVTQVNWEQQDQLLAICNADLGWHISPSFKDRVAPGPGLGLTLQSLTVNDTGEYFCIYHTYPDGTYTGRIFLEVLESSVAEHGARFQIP
Kind of assay: SPR (BIACORE), N=2.

The target in assay [4] is T3, human TIGIT protein. Kind of assay: SPR (BIACORE), N=2.
The next assay has as its target T5, hTIGIT mutant L73A (human, UniProt Q495A1).
T5 sequence (TIGIT, looked up): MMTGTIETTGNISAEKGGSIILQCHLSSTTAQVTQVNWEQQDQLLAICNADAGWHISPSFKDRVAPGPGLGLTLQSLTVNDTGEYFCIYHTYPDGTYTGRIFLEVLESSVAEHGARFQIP
Put plainly: SPR (BIACORE), N=2.

For a further assay, the target named is T6, hTIGIT mutant Y113A (human, UniProt Q495A1).
T6 sequence (TIGIT, looked up): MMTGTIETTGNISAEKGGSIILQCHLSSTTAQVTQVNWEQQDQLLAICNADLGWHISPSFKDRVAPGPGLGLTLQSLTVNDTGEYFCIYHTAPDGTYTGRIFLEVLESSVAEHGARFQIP
Put plainly: SPR (BIACORE), N=2.

For assay [5], the target named is T7, human TIGIT on activated human primary T cells (human, UniProt Q495A1 22-244).
T7 construct: also called Human T cell
T7 sequence: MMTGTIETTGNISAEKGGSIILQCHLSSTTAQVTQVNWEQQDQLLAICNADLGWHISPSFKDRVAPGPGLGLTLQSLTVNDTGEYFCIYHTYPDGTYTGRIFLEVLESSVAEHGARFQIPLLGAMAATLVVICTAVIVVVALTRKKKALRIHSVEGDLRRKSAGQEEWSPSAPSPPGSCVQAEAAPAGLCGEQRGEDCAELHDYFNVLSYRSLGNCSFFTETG
Put plainly: FACS, activated human T cells. The protocol: The OMT- and SD-derived anti-TIGIT clones were also tested for binding to human primary T cells by FACS analysis. Human PBMC were activated for with plate-bound anti-CD3 (5 μg/ml) and soluble anti-CD28 (2 μg/ml) for 2 days as described in Yu et al. Nature Immunology. 10: 48-57, 2009, which is incorporated herein by reference in its entirety. Cells were then washed and incubated with incubated with each anti-TIGIT antibody at the indicated concentrations and then detected via a FITC-labeled anti-hIgG antibody. Cells were also stained with anti-CD4, anti-CD8, and anti-CD25 (BD bioscience). Human CD4+(CD25+CD4+) and human CD8+(CD25+CD8+) T cells were assessed for binding by the anti-TIGIT clones by FACS. All samples were acquired on LSR-II or LSR-Fortessa instruments (BD Biosciences) and analyzed using FlowJo software (Treestar).

Assay [6] has as its target T2, cynomolgus monkey (cyno) TIGIT protein. Kind of assay: SPR, monovalent affinity.
Assay [7] addresses T3, human TIGIT protein. Kind of assay: SPR, monovalent affinity.
Assay [8] deals with T8, mu TIGIT (target named for 10A7 in the heads of Tables 6 and 7) (mu (mouse), UniProt P86176 29-249, limits assumed).
T8 construct: Only the column head says mu TIGIT; the text describes no mouse TIGIT cells
T8 sequence (looked up): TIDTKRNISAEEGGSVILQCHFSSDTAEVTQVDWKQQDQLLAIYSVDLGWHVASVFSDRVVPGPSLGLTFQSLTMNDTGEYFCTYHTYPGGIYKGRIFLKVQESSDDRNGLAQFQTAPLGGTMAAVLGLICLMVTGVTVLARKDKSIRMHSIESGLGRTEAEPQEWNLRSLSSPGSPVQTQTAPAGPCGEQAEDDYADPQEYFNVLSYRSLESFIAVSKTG
Put plainly: FACS, CHO cells expressing TIGIT.

Assay [9] addresses T8, mu TIGIT (target named for 10A7 in the …). Kind of assay: FACS, T cell binding (row: Human T cell; column head: mu TIGIT). In a few lines: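 Activated human peripheral blood T cells were stained with each anti-TIGIT antibody and analysed by flow cytometry. Binding was detected with a FITC-labelled anti-human IgG, gated on CD25+CD4+ and CD25+CD8+ cells (LSR-II or LSR-Fortessa, FlowJo). EC50 values come from these titrations.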

Assay [10] shares this target. Kind of assay: TR-FRET, TIGIT with ST-CD226 on CHO cells; competitor CD226.
Assay [11] has the same target. Kind of assay: FACS, PVR-Fc on CHO-TIGIT cells; competitor PVR-Fc. How it is done:
as §1

T2 sequence (A0A7N9I9V4 entry or part of it): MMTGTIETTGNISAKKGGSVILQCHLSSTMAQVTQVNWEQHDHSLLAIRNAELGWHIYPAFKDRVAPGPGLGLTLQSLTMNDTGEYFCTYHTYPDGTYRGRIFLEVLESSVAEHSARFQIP
T1 sequence (A0A7N9I9V4 entry or part of it): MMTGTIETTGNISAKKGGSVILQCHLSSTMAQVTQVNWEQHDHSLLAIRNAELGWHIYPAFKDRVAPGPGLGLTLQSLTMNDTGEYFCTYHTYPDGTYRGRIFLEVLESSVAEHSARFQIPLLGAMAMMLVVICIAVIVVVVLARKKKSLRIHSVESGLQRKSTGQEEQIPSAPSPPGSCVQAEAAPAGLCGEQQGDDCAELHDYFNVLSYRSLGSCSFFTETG

B1: 4.1D3 (antibody, V domains shown)
VH: QVQLQQSGPGLVKPSQTLSLTCAISGDSVSSNSAAWNWIRQSPSRGLEWLGKTYYRFKWYSDYAVSVKGRITINPDTSKNQFSLQLNSVTPEDTAVFYCTRESTTYDLLAGPFDYWGQGTLVTVSS
VL: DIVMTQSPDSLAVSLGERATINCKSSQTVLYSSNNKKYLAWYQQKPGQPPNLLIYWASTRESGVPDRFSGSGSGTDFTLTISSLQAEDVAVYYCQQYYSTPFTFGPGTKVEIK
notes: OMT rat-derived human antibody; also called 4.1D3.Q1
For B1, the “IC50 (read off the curve)” value in [1] was roughly 0.6 nM. In addition, the Kd in assay [2] is 0.36 nM; with human TIGIT protein [3] it was no more than 0.019 nM; in the assay with hTIGIT mutant Q53A, 0.8 nM; with human TIGIT protein [4] it was 0.5 nM; with hTIGIT mutant L73A it was 1.3 nM; with hTIGIT mutant Y113A, 2.8 nM.

B2: 4.1D3.Q1E (antibody, V domains shown)
VH: EVQLQQSGPGLVKPSQTLSLTCAISGDSVSSNSAAWNWIRQSPSRGLEWLGKTYYRFKWYSDYAVSVKGRITINPDTSKNQFSLQLNSVTPEDTAVFYCTRESTTYDLLAGPFDYWGQGTLVTVSS
VL: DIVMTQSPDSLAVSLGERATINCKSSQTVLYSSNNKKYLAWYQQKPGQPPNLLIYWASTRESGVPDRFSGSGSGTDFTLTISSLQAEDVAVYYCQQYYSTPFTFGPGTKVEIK
Turning to B2, the EC50 in assay [5] came to 1.36 nM. Also, the Kd in assay [6] was 3.2 nM; with human TIGIT protein [7] it was 0.56 nM.

B3: 7.4A3.C96S.Q1E (antibody, V domains shown)
VH: EVQLVQSGSDLKKPGASVRVSCKASGYTFTSYPMNWVRQAPGHGLEWMGWINTNTGNPTYVQGFTGRFVFSLDTSVNTAYLQISSLKAEDTAVYFCARTGGHTYDSYAFDVWGQGTMVTVSS
VL: DIQLTQSPTFLSASVGDRVTITCRASQVISSSLAWYQQNPGKAPKLLIYAASTLQSGVPSRFSGSGSGTEFTLTISSLQPEDFVTYYCQHLHGYPSNFGQGTKVEIK
notes: also called 7.4A3.Q1E.C96S
Take B3: in assay [1], the “IC50 (read off the curve)” value was roughly 0.3 nM. Further, the Kd worked out at 1.8 nM with human TIGIT protein [4], 2.01 nM in assay [6] and 2.97 nM with human TIGIT protein [7]. The molecule further returned a concentration for a half-maximal effect (EC50) in assay [5] of 2.63 nM.

B4: 10A7 (antibody, V domains shown)
VH: EVQLVESGGGLTQPGKSLKLSCEASGFTFSSFTMHWVRQSPGKGLEWVAFIRSGSGIVFYADAVRGRFTISRDNAKNLLFLQMNDLKSEDTAMYYCARRPLGHNTFDSWGQGTLVTVSS
VL: DIVMTQSPSSLAVSPGEKVTMTCKSSQSLYYSGVKENLLAWYQQKPGQSPKLLIYYASIRFTGVPDRFTGSGSGTDYTLTITSVQAEDMGQYFCQQGINNPLTFGDGTKLEIKR
In the case of B4, the EC50 stood at 0.54 nM in assay [8] and 0.63 nM in assay [9]. For the same molecule, the Kd with hTIGIT mutant Q53A is 32 nM; with hTIGIT mutant L73A, greater than 500 nM; with hTIGIT mutant Y113A, 55.5 nM. For the same molecule, the half-maximal inhibitory concentration (IC50) in assay [10] amounted to 17.6 nM; in [11] it was 0.07 nM.

These data come from patent US20220064286A1 (Genentech, published 2022).
